Assay results published in patent US20110305629A1.

Legend:
[1] = target: human αvβ6 integrin on cells (human) (UniProt P06756); experiment: cell adhesion assay: SW480β6 cells to LAP, inhibition by m3G9
[2] = target: rhesus monkey αvβ6 integrin on 4MBr5 cells (rhesus monkey) (UniProt H9ETF2); experiment: flow cytometry titration on 4MBr5 cells; given as ED50; the text gives the cell lines the other way round than the table
[3] = target: rhesus monkey αvβ6 integrin on 4MBr5 cells (rhesus monkey) (UniProt H9ETF2); experiment: cell adhesion assay: 4MBr5 cells to LAP; the text gives the cell lines the other way round than the table
[4] = target: rhesus monkey αvβ6 integrin on 4MBr5 cells (rhesus monkey) (UniProt H9ETF2); experiment: flow cytometry titration on 4MBr5 cells; given as ED50
[5] = target: human αvβ6 integrin on cells (human) (UniProt P06756); experiment: cell adhesion assay: Detroit562 cells to LAP, inhibition by m3G9
[6] = target: African green monkey αvβ6 integrin on 12MBr6 cells (African green monkey); experiment: flow cytometry titration on 12MBr6 cells; given as ED50; the text gives the cell lines the other way round than the table
[7] = target: African green monkey αvβ6 integrin on 12MBr6 cells (African green monkey); experiment: cell adhesion assay: 12MBr6 cells to LAP; the text gives the cell lines the other way round than the table
[8] = target: African green monkey αvβ6 integrin on 12MBr6 cells (African green monkey); experiment: cell adhesion assay: labelled 12MBr6 cells on LAP-coated plate, inhibition by m3G9
[9] = target: African green monkey αvβ6 integrin on 12MBr6 cells (African green monkey); experiment: flow cytometry titration on 12MBr6 cells; given as ED50
[10] = target: rhesus monkey αvβ6 integrin on 4MBr5 cells (rhesus monkey) (UniProt H9ETF2); experiment: cell adhesion assay: labelled 4MBr5 cells on LAP-coated plate, inhibition by m3G9
[11] = target: human αvβ6 integrin on cells (human) (UniProt P06756); experiment: cell-based or functional assay
[12] = target: rhesus monkey αvβ6 integrin on 4MBr5 cells (rhesus monkey) (UniProt H9ETF2); experiment: cell-based or functional assay
[13] = target: human αvβ6 integrin on cells (human) (UniProt P06756); experiment: cell adhesion assay: SCC-14 cells to LAP, inhibition by m3G9
αvβ6 = αvβ6 (UniProt P06756); experiment: binding ELISA; murine secondary
Sequence of αvβ6 (P06756 31-992, chain 1 of 2): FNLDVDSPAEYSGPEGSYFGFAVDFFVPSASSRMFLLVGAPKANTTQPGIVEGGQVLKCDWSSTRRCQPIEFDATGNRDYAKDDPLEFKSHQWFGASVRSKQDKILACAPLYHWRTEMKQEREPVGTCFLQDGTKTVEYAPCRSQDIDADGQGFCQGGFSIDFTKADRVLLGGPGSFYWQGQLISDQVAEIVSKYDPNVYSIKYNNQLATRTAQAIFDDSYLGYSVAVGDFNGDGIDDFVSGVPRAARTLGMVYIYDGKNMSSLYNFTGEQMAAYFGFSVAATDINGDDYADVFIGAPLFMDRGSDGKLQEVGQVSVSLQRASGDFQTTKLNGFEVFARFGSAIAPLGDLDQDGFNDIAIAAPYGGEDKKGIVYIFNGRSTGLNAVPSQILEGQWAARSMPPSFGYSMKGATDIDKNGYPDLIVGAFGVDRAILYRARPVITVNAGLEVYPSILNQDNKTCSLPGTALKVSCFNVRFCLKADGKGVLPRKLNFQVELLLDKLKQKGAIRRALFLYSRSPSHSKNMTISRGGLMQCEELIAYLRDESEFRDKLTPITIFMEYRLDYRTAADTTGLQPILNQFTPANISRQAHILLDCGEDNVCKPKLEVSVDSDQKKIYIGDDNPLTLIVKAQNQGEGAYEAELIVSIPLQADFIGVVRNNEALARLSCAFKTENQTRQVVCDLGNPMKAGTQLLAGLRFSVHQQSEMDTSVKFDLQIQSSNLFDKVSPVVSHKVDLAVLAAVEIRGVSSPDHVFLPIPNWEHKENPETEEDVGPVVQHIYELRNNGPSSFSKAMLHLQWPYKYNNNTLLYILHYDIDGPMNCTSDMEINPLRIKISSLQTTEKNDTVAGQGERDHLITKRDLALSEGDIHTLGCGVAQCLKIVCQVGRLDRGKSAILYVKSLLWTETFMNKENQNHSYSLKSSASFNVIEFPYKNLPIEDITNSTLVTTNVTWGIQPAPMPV
Sequence of αvβ6 (P18564 22-709, chain 2 of 2, further chain): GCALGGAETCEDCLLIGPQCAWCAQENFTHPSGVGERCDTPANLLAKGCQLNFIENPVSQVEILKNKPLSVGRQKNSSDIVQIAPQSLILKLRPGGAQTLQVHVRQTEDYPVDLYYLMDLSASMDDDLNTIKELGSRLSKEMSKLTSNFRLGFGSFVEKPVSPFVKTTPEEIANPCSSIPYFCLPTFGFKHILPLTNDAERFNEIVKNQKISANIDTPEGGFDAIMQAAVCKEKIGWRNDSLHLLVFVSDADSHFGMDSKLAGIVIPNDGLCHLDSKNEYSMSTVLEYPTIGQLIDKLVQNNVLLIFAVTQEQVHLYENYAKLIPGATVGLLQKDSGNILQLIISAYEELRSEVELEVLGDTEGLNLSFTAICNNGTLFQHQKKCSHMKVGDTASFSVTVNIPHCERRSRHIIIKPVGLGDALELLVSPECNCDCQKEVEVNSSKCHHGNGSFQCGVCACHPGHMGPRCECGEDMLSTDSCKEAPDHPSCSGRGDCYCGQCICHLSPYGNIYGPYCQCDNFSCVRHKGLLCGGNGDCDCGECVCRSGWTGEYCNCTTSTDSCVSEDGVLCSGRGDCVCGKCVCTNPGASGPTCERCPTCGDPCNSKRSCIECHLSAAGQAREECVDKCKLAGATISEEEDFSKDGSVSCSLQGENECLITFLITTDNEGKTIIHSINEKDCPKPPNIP

Sequence of human αvβ6 integrin on cells (human) (P06756 31-1048, chain 1 of 2): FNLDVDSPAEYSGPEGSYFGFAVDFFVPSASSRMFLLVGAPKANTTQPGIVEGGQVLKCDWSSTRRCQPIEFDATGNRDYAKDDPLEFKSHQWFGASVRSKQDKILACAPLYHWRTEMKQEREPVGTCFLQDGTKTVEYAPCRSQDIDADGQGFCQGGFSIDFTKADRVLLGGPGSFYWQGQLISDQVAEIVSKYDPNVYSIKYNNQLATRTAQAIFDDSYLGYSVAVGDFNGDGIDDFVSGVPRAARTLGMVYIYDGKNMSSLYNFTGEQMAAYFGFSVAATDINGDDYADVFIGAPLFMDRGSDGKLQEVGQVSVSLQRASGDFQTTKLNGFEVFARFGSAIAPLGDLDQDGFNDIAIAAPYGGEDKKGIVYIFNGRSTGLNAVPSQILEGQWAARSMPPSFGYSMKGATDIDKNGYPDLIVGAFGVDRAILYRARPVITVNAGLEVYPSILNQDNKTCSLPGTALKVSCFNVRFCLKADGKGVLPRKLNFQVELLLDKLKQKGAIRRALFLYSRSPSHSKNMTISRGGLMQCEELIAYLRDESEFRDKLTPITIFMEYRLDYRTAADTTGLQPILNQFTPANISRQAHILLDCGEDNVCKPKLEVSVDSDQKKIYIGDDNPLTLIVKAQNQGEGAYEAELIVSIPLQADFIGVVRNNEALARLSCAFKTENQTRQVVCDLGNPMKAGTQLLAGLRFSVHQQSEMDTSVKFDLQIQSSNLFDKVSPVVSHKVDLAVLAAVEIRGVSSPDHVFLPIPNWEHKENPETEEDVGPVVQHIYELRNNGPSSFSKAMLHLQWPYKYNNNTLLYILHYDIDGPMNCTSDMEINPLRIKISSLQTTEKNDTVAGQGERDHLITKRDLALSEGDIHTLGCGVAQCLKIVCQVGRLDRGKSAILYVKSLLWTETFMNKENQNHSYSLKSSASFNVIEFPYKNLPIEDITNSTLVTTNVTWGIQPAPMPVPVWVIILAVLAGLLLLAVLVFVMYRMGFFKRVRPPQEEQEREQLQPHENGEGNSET
Sequence of human αvβ6 integrin on cells (human) (P18564 22-788, chain 2 of 2, further chain): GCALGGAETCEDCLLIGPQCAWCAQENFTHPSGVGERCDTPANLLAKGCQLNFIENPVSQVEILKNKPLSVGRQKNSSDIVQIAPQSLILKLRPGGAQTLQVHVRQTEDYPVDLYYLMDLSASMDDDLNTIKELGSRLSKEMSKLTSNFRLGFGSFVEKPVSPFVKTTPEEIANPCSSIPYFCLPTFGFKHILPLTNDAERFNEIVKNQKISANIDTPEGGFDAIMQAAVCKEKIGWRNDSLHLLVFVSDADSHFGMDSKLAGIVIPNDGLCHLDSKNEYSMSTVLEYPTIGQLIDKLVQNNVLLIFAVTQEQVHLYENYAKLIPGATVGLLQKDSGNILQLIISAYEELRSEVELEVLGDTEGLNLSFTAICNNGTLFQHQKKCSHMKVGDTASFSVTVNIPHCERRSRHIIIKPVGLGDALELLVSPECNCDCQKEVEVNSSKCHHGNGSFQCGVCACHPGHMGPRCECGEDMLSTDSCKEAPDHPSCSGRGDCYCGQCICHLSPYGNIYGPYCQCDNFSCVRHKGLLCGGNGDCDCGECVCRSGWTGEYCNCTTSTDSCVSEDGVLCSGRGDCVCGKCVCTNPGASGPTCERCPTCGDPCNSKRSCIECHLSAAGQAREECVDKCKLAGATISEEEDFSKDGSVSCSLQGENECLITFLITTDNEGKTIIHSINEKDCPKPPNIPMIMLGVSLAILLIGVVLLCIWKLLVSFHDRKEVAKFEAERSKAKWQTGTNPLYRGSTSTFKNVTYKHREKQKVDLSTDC

| Substance | IC50 [1] [µg/mL] | EC50 [2] [µg/mL] | IC50 [3] [µg/mL] | EC50 [4] [µg/mL] | IC50 [5] [µg/mL] | EC50 [6] [µg/mL] | IC50 [7] [µg/mL] | IC50 [8] [µg/mL] | EC50 [9] [µg/mL] | IC50 [10] [µg/mL] | Coculture IC50, µg/mL (TGFβ activation by SW480β6 cells, TMLC luciferase reporter cells) [11] [µg/mL] | IC50, coculture assay (SW480β6) [11] [µg/mL] | Coculture IC50, µg/mL (TGFβ activation by 4MBr5 cells, TMLC luciferase reporter cells) [12] [µg/mL] | IC50, coculture assay (4MBr5) [12] [µg/mL] | IC50 [13] [µg/mL] | EC50 (αvβ6) [µg/mL] |
| --- | --- | --- | --- | --- | --- | --- | --- | --- | --- | --- | --- | --- | --- | --- | --- | --- |
| murine monoclonal antibody 6.3G9 | 0.03 | 0.38 | 0.29 | 0.3 | 0.04 | 0.3 | 0.22 | 0.29 | 0.38 | 0.22 | 0.37 | 0.24 | 0.31 | 0.4 | 0.16 |  |
| m3G9 (murine secondary) |  |  |  |  |  |  |  |  |  |  |  |  |  |  |  | 0.021 |
